One assay deals with HLA-B*40:01. In words: IEDB peptide-MHC binding, purified MHC/competitive/fluorescence; filed as Kd, often an IC50 or EC50 that approximates it; ≥ and ≤ were set here for values at or beyond the usual limits of such assays.
In assay [1] the target is HLA-B*15:01. Description: IEDB peptide-MHC binding, purified MHC/direct/fluorescence; filed as Kd, often an IC50 or EC50 that approximates it; ≥ and ≤ were set here for values at or beyond the usual limits of such assays. Conditions: source organism: Mycobacterium tuberculosis variant bovis.
The target in another assay is HLA-B*35:01. In words: IEDB peptide-MHC binding, purified MHC/competitive/fluorescence; filed as Kd, often an IC50 or EC50 that approximates it; ≥ and ≤ were set here for values at or beyond the usual limits of such assays.
For assay [2], the target named is HLA-B*08:01. The description is as above. The following applies: source organism: Shigella flexneri 5 str. 8401.
Another assay has as its target HLA-B*51:01. The assay is described as above.
The target in assay [3] is HLA-B*15:01. Described as above.
In a further assay the target is HLA-B*39:01. Described as above.
Assay [4] deals with HLA-B*08:01. Description: IEDB peptide-MHC binding, purified MHC/direct/fluorescence; filed as Kd, often an IC50 or EC50 that approximates it; ≥ and ≤ were set here for values at or beyond the usual limits of such assays. The following applies: source organism: Listeria monocytogenes serotype 4b str. H7858.
A further assay deals with HLA-B*08:03. The description is as above. Conditions: source organism: Listeria monocytogenes serotype 4b str. H7858.
The next assay addresses HLA-B*08:02. The assay is described as above. The following applies: source organism: Listeria monocytogenes serotype 4b str. H7858.
Assay [5] concerns the target HLA-A*03:01. In words: IEDB peptide-MHC binding, purified MHC/competitive/fluorescence; filed as Kd, often an IC50 or EC50 that approximates it; ≥ and ≤ were set here for values at or beyond the usual limits of such assays. The following applies: source organism: Homo sapiens.
The target of assay [6] is HLA-A*02:11. The assay is described as above. Conditions: source organism: Homo sapiens.
The target in assay [7] is HLA-A*02:16. The description is as above. The following applies: source organism: Homo sapiens.
The target of the next assay is HLA-B*27:03. The assay is described as above.
Another assay addresses HLA-B*46:01. The description is as above.
The next assay concerns the target HLA-A*02:01. The assay is described as above.
Assay [8] deals with HLA-A*24:03. The assay is described as above. Conditions: source organism: Homo sapiens.
The target in a further assay is HLA-A*01:01. The description is as above.
In another assay the target is HLA-B*15:17. Described as above.
For assay [9], the target named is HLA-A*02:03. The assay is described as above. Conditions: source organism: Homo sapiens.
The target of assay [10] is HLA-A*29:02. The description is as above. Conditions: source organism: Homo sapiens.
The target of the next assay is HLA-A*26:01. Described as above.
The target in assay [11] is HLA-A*02:19. The assay is described as above. Conditions: source organism: Homo sapiens.
The target in assay [12] is HLA-A*68:02. Described as above. The following applies: source organism: Homo sapiens.
The target of the next assay is HLA-A*69:01. Described as above.
Assay [13] deals with HLA-A*02:12. The description is as above. Conditions: source organism: Homo sapiens.
The target of assay [14] is HLA-A*03:01. In words: IEDB peptide-MHC binding, purified MHC/direct/fluorescence; filed as Kd, often an IC50 or EC50 that approximates it; ≥ and ≤ were set here for values at or beyond the usual limits of such assays. Conditions: source organism: Orthohantavirus tulaense.
Assay [15] concerns the target HLA-A*02:11. Described as above. Conditions: source organism: Orthohantavirus tulaense.
The target in assay [16] is HLA-A*02:16. The assay is described as above. The following applies: source organism: Orthohantavirus tulaense.
Assay [17] concerns the target HLA-A*24:03. The description is as above. The following applies: source organism: Orthohantavirus tulaense.
Assay [18] concerns the target HLA-A*02:03. The assay is described as above. The following applies: source organism: Orthohantavirus tulaense.
For assay [19], the target named is HLA-A*29:02. The description is as above. Conditions: source organism: Orthohantavirus tulaense.
In another assay the target is HLA-A*23:01. Described as above. Conditions: source organism: Orthohantavirus tulaense.
In assay [20] the target is HLA-A*02:19. The description is as above. Conditions: source organism: Orthohantavirus tulaense.
Assay [21] deals with HLA-A*68:02. Described as above. The following applies: source organism: Orthohantavirus tulaense.
For assay [22], the target named is HLA-A*02:12. Described as above. Conditions: source organism: Orthohantavirus tulaense.
The target in the next assay is HLA-B*57:01. In words: IEDB peptide-MHC binding, purified MHC/competitive/fluorescence; filed as Kd, often an IC50 or EC50 that approximates it; ≥ and ≤ were set here for values at or beyond the usual limits of such assays. The following applies: source organism: Orthohantavirus tulaense.
Another assay concerns the target HLA-B*18:01. Described as above. Conditions: source organism: Orthohantavirus tulaense.
[23] abbreviates: source organism: Shigella flexneri 5 str. 8401.
The mark [24] stands for this setting: source organism: Escherichia coli.
[25] abbreviates: source organism: Orthohantavirus tulaense.

With EEISSIISL, the Kd (in general, the free concentration of one partner at which half of the binding sites on the other are occupied at equilibrium, for simple one-to-one binding) in the assay with HLA-B*40:01 (source organism: Bacillus anthracis str. A2012) came to 0.0023 µM.
As for ELNITSATY, the dissociation constant (Kd) in the assay with HLA-B*15:01 [1] stood at 0.459 µM; with HLA-B*35:01 (source organism: Mycobacterium tuberculosis variant bovis), 0.0182 µM.
LPRRLQLLF: the Kd was 4 µM in the assay with HLA-B*08:01 [2], 2.64 µM with HLA-B*51:01 (setting [23]) and 0.0029 µM with HLA-B*35:01 (setting [23]).
For LQEEMAETL, the figures for the Kd with HLA-B*40:01 (setting [24]), in the assay with HLA-B*15:01 [3] (setting [24]) and in the assay with HLA-B*39:01 (setting [24]) were 0.866 µM, ≥ 20 µM and 0.108 µM, respectively.
As for QATAQAAAY, the Kd in the assay with HLA-B*15:01 [1] was 6.05 µM; in the assay with HLA-B*35:01 (source organism: Mycobacterium tuberculosis C), 0.0145 µM.
As to QMKRRILSF, the Kd in the assay with HLA-B*08:01 [4] is 0.009 µM; with HLA-B*08:03 it was 0.095 µM; with HLA-B*08:02 it was 0.057 µM.
With REWSGLNYL, the Kd with HLA-B*40:01 (source organism: Salmonella enterica subsp. enterica serovar Typhi) came to 0.0033 µM.
Take SSDLRSWTF: the Kd with HLA-A*03:01 [5], with HLA-A*02:11 [6], with HLA-A*02:16 [7], in the assay with HLA-B*27:03 (source organism: Homo sapiens), with HLA-B*46:01 (source organism: Homo sapiens) and in the assay with HLA-B*51:01 (source organism: Homo sapiens) was ≥ 20 µM in each case. The Kd is ≥ 20 µM with HLA-A*02:01 (source organism: Homo sapiens); ≥ 20 µM in the assay with HLA-A*24:03 [8]; 0.538 µM with HLA-A*01:01 (source organism: Homo sapiens); ≥ 20 µM with HLA-B*15:17 (source organism: Homo sapiens); ≥ 20 µM with HLA-A*02:03 [9]; ≥ 20 µM with HLA-A*29:02 [10]. Besides, the Kd with HLA-A*26:01 (source organism: Homo sapiens), with HLA-B*15:01 [3] (source organism: Homo sapiens), with HLA-A*02:19 [11], in the assay with HLA-A*68:02 [12], with HLA-B*39:01 (source organism: Homo sapiens) and in the assay with HLA-A*69:01 (source organism: Homo sapiens) was ≥ 20 µM in each case. Further, the Kd with HLA-A*02:12 [13] is ≥ 20 µM.
Consider VVDALRNIY, for which the Kd with HLA-A*03:01 [14], with HLA-A*02:11 [15], with HLA-A*02:16 [16], with HLA-A*24:03 [17], with HLA-A*02:03 [18] and with HLA-A*29:02 [19] was ≥ 20 µM throughout. Also, the Kd with HLA-A*23:01, with HLA-A*02:19 [20], in the assay with HLA-A*68:02 [21], with HLA-A*02:12 [22], in the assay with HLA-B*27:03 (setting [25]) and in the assay with HLA-B*46:01 (setting [25]) was ≥ 20 µM each time. The Kd was ≥ 20 µM in the assay with HLA-B*57:01; ≥ 20 µM with HLA-B*51:01 (setting [25]); ≥ 20 µM in the assay with HLA-A*02:01 (setting [25]); 0.0063 µM with HLA-A*01:01 (setting [25]); ≥ 20 µM with HLA-B*15:17 (setting [25]); ≥ 20 µM with HLA-A*26:01 (setting [25]). Besides, the Kd with HLA-B*39:01 (setting [25]), with HLA-A*69:01 (setting [25]) and with HLA-B*18:01 was ≥ 20 µM each time.

The values above are taken from the Immune Epitope Database (IEDB).
